Patent US20140187616A1

Target: Drosophila olf186-F-RB (Drosophila) (UniProt Q9U6B8)
Assay: cell-based or functional assay

Sequence of UniProt Q9U6B8 (Q9U6B8 whole entry): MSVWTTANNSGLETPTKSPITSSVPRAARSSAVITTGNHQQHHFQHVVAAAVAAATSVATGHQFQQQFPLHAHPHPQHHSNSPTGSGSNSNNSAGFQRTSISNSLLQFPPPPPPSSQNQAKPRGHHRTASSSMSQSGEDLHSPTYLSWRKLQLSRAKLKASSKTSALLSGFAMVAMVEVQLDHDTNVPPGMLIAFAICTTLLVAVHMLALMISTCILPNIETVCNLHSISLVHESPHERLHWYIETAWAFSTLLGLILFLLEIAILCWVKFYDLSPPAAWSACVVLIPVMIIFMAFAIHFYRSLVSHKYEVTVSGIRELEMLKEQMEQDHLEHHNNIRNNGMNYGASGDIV

- CRAC current density (whole-cell patch clamp, cotransfected S2 cells): 8 fold
Substance: Drosophila Stim (from UniProt P83094 24-570)
